{"source": "the supplement of paper PMC9170038"}
{"tested_on": "MS2 coat protein", "assay": "apparent KD of MS2 coat protein; higher = weaker reporter binding", "conditions": "Eterna round: R107; input ligand: arginine 13.2 mM", "method_in_brief": "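The designed RNA switches were transcribed on-chip from Illumina sequencing clusters. In 100 mM Tris-HCl pH 7.5, 80 mM KCl and 4 mM MgCl2, without or with constant ligand, they were titrated with SNAP-549-labelled MS2 coat protein from 0.7 or 1.5 nM to 3 µM in twofold steps. Apparent KD is the per-design median of normalised cluster binding-curve fits.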", "units": {"apparent KD of MS2 coat protein": "nM"}}
{"sequence": "UUUUACAUGAGGAUCACCCAUGUGCGGCGCCGAGGACCGGUACGGCCGCCACUCGCAUGGGCAUGCCGCGAUAUCAUUCCUGAAC [theeternabot_sameState_MS2_Trp_A_43]", "apparent KD of MS2 coat protein": 53.6}
{"sequence": "UCGCUCGCCGCAAGGCGAGCGAGUUGCGAUACCAGCCCGGAAACGGGCCCUUGGCAGCGCACAUGAGGAUCACCCAUGUCAUGUU [#1 Exclusion - Theophylline A Attempt #4 (HarryS)]", "apparent KD of MS2 coat protein": 24.7}
{"sequence": "ACAUACAUGAGGAUCACCCAUGUCCAUGUUCGAGGACCGGUACGGCCGCCACUCGCGCGACAGCAUGAGGAACUUGAGGAUCACA [Exclusion Tryptophan A]", "apparent KD of MS2 coat protein": 39.5}
{"sequence": "AAAAUAAAAGGUGCAAAAUCCUAAUGUGAAGGAGCGCACGAAAGUGCAGGUAGGUCGCACAUGAGGAUCACCCAUGUAGCACCAA [ArgEX 4 #SwitchBubble]", "apparent KD of MS2 coat protein": 54.8}
{"sequence": "AAUUAUCAGUCGGCCGCCACUGACACAUGAGGAUCACCCAUGUAACAUGGGUAAAAUUAACUGAACAGGACCGGGACAAAGGCUA [JR_ExcTryptoB_Sub008]", "apparent KD of MS2 coat protein": 179}
{"sequence": "CAUUAAGUAACUGAUACCAGUGUACUGACAUGAGGAUCACCCAUGUUGGGUUUUGUUGUACACCCUUGGCAGCAGAAUCUUAAUG [AstrosExyTheB#3]", "apparent KD of MS2 coat protein": 44.7}
{"sequence": "AAGACUGGACAUAAGUCCAGUCAACCUGAAGGAGCGGGUGGGUGCCCAGGUAGGUCGCGGGAACAUGAGGAUCACCCAUGUAUAA [ArgAS 5 #BothOrNeither #OpenEnded]", "apparent KD of MS2 coat protein": 17.4}
{"sequence": "AGGAGACAUGAGGAUCACCCAUGUCCAGAUACCAGAAUGUCUUUGUUCCCUUGGCAGCUGUGGAAAUCUGACCUGCCUCGGUCUG [theeternabot_sameState_MS2_Theo_A_31]", "apparent KD of MS2 coat protein": 14.6}
{"sequence": "AAGACAUGAGGAUCACCCAUGUCGUCUACACGAGGACCGGUACGGCCGCCACUCGUUUGCCAAUGAGCGCAUGCGGCCUGGGUAU [Exclusion Tryp A GF3]", "apparent KD of MS2 coat protein": 13.2}
{"sequence": "AAAAGACAUGAGGAUCACCCAUGUAGAGAUACCAGAUGCAUGGACAUCCCUUGGCAGCUCGUCACUUUCUAUAUUUUCCAGACGC [theeternabot_sameState_MS2_Theo_A_37]", "apparent KD of MS2 coat protein": 31}
{"sequence": "GGUGGCUGGAUCGAUACCAGCCACCACCGAUAGACCACAUGAGGAUCACCCAUGUUGGGUGGCCCUUGGCAGCGGUCCGGCUGCC [#1 Same State - Theophylline B Attempt #7 (HarryS)]", "apparent KD of MS2 coat protein": 126}
{"sequence": "GUACAUGAGGAUCACCCAUGUAUAGUUGAAGGAGCGACCGGAGGGUCAGGUAGGUCGCAGCACAUGGCGUCAACCCGUGUAUGCC [#1 Exclusion - Arginine A Attempt #25 (Inspired by Pi)]", "apparent KD of MS2 coat protein": 15.2}
{"sequence": "GAGACGUCGGGAAGGAGCGCAUCCAAACCACACAUGAGGAUCACCCAUGUAUAAAUAUGCAUGCAGGUAGGUCGCCCGGUGUCCA [Xegeisge]", "apparent KD of MS2 coat protein": 49.9}
{"sequence": "ACUAGAGGUGGAAGGAGCGGGAGACAUGAGGAUCACCCAUGUGAAGUUUCGAGAGGAUCAUCCCAGGUAGGUCGCCAUGUCGAAA [vvbvmullin]", "apparent KD of MS2 coat protein": 35.3}
{"sequence": "UAAAACAUGAGGAUCACCCAUGUAAUUGAUACCAGAGUGAUGAUCCUCCCUUGGCAGCAAAUAACGCAUUGGAAACAAUGCGAAA [Mat - Same State Theophlline A - Mod of Eli - D26]", "apparent KD of MS2 coat protein": 51.4}
{"sequence": "CUACAUUUGUAGAAACCGGUCAACAAUAAUCGAGGACCGGUACGGCCGCCACUCGUAUAAUUUUAUACAUGAGGAUCACCCAUGU [Tryptophan A 3]", "apparent KD of MS2 coat protein": 13.7}
{"sequence": "UACAUGAGGAUCACCCAUGUCUGAACUGAAGGAGCGCUAAAUAAGGCAGGUAGGUCGCGGAAUUUUGUGUGCAUAUGCAUAUGGG [9.L]", "apparent KD of MS2 coat protein": 34.5}
{"sequence": "GAUCUUGCGGGCGCCCGCAAGGUUGCGGAUACCAGCGAGAUUAAUCGCCCUUGGCAGCCGAACAUGAGGAUCACCCAUGUCGGAC [Same State - Theophylline A Attempt #2 (HarryS)]", "apparent KD of MS2 coat protein": 8.92}
{"sequence": "ACAUGAGGAUCACCCAUGUAUGACUAUCCUCGAGGACCGGUACGGCCGCCACUCGAAGGAGUGGCUCGCGAGUGCGCACUUGCGA [5' end]", "apparent KD of MS2 coat protein": 10.9}
{"sequence": "GGCACACAUGAGGAUCACCCAUGUGGCGAUACCAGUUGAUGGUAAAACCCUUGGCAGCGCCAGUCACAUGCAGAUAGUUACUGAA [theeternabot_sameState_MS2_Theo_A_32]", "apparent KD of MS2 coat protein": 14.2}
{"sequence": "AUCGUACCUGAGGAUACCAGCAUGUGAUCAUAACAUGAGGAUCACCCAUGUAAUCAGUGAUGCCCUUGGCAGCUUAGUCGAUACA [Same State - Theophylline B (Freestyle 7)]", "apparent KD of MS2 coat protein": 58.7}
{"sequence": "GGAGCUACGUCGGCCGCCACUAGCGGGUAUUGCGUGUACAUGAGGAUCACCCAUGUAAUAUGGCCUAGGACCGGGACGUAGCUCC [Bison]", "apparent KD of MS2 coat protein": 13.3}
{"sequence": "UGUAUGUGAUCUGAUACCAGCUUUGAUAACCUGAGGAUCACCCUGGUAAAGGCGAAAGCCAGCCCUUGGCAGCAGAUCGCAUACU", "apparent KD of MS2 coat protein": 69.8}
{"sequence": "UGUAUGGACUGAAGGAGCGGUAGAUAACCUGAGGAUCACCCGGGUAAUAAAGGCGAAAGCCACCAGGUAGGUCGCAGUCCAUACU", "apparent KD of MS2 coat protein": 93.3}
{"sequence": "GCUGCCAUACGAAGGAGCGCUGUUGCAAUGAGGCGAACAUGAGGAUCACCCAUGUGGCAGCAGCAGGUAGGUCGCGUAUGGCAGC [EAB #12]", "apparent KD of MS2 coat protein": 33.4}
{"sequence": "AAAACCUCACCUGAGGAACACCCAGGUGAUACCAGCCUGGAAACAGGCCCUUGGCAGCACCAGGUCAUCAAAGAUGACCAAAUAA [TheoAX 25 #OpenEnded #AlternativeMS2]", "apparent KD of MS2 coat protein": 17.5}
{"sequence": "AUAUGAUCAUAUGAUACCAGAAAUGGUAUUCCUUUCUUUCUUACAUGAGGAUCACCCAUGUUCCCUUGGCAGCAUAUGAUCAUAU [ETHB #1]", "apparent KD of MS2 coat protein": 90.7}
{"sequence": "UUAGAUAUGACAGAUACCAGCGUGUUGUAGAACAUGAGGAUCACCCAUGUAGUGAUCGAGCGCCCUUGGCAGCUGGUGUGUUUGG [7.S]", "apparent KD of MS2 coat protein": 163}
{"sequence": "ACAUGAGGGAUGGAUACCAGCGACAUGAGGAUCACCCAUGUAUGAGGAUCAGCCAUGUUAUGCCCUUGGCAGCCACGAACAUGAG [ACFMULLIN]", "apparent KD of MS2 coat protein": 26.2}
{"sequence": "UGUAUGGACUGAAGGAGCGGGUAAAUAACUUGAGGAUCACCCAGGUAAAAGGCGAAAGCCACCCAGGUAGGUCGCAGUCCAUACU", "apparent KD of MS2 coat protein": 23.6}
{"sequence": "UCGUGUGUUUCGGAUACCAGUGAAAUCGAUACAUGAGGAUCACCCAUGUGAGAGGAUGUACACCCUUGGCAGCUGGCUGUAGCGG [yyzmullin]", "apparent KD of MS2 coat protein": 32.1}
{"sequence": "UGCCUAAAGUCGGCCGCCACUGAUGGUAUCCUCUCCUCGAGGUCACACAUGAGGAUCACCCAUGUCAGGACCGGGACUAGUGAGA [theeternabot_exclusion_MS2_Trp_B_36]", "apparent KD of MS2 coat protein": 7.11}
{"sequence": "GAGGACAUGAGGAUCACCCAUGUAAAUGAUACCAGUUGAGAGAGAGGCCCUUGGCAGCGUAAACAUGACAGCGAGCGAGAGUGCG [ss-theoA-0]", "apparent KD of MS2 coat protein": 16.3}
{"sequence": "CAAAAUGCGGCGGCCGCCACUCAGCUCCGUGUGGUUGGUCAUCUUAACAUGAGGAUCACCCAUGUGAGGACCGGGCCAGCGAGUG [theeternabot_exclusion_MS2_Trp_B_38]", "apparent KD of MS2 coat protein": 13.3}
{"sequence": "CACGGACGAGUGGAUCACCCUUGUAAUAACCGAGGACCGGUACGGCCGCCACUCGAAAACCGUGACCUGUACGAAAAGUGCAGGA", "apparent KD of MS2 coat protein": 14.2}
{"sequence": "CGGGACAUGAGGAUCACCCAUGUACGAUCCCGAGGACCGGUACGGCCGCCACUCGCUAGCGUUGAGUCGCGACUUUCAUAACUAA [theeternabot_sameState_MS2_Trp_A_27]", "apparent KD of MS2 coat protein": 36.7}
{"sequence": "CCCAGUUAUAUCAAAGGAAUUAUACUCGAAGGAGCGUCAUAGUAGGCAGGUAGGUCGCGAGACAUGAGGAUCACCCAUGUAGAGA [pxpmullin]", "apparent KD of MS2 coat protein": 37.6}
{"sequence": "GGAUAGGACAGAAGGAGCGUGAGAUGCAAAGCAUCAUUCCUCACAUGAGGAUCACCCAUGUCACAGGUAGGUCGCUGUCCUAUCG [ArgBX 4]", "apparent KD of MS2 coat protein": 78.3}
